Values quoted from earlier work, collected in patent publication US20200069786A1, “COMPOSITION AND PROCESS FOR PREPARING VACCINE” (TREOS BIO ZRT., priority 2018, published 2020).
Like-named read-outs stand apart in the source and are kept apart here.

B1: MAGE-A1l (protein, UniProt P43364 1-429, looked up)
Melanoma-associated antigen 11: METQFRRGGLGCSPASIKRKKKREDSGDFGLQVSTMFSEDDFQSTERAPYGPQLQWSQDLPRVQVFREQANLEDRSPRRTQRITGGEQVLWGPITQIFPTVRPADLTRVIMPLEQRSQHCKPEEGLQAQEEDLGLVGAQALQAEEQEAAFFSSTLNVGTLEELPAAESPSPPQSPQEESFSPTAMDAIFGSLSDEGSGSQEKEGPSTSPDLIDPESFSQDILHDKIIDLVHLLLRKYRVKGLITKAEMLGSVIKNYEDYFPEIFREASVCMQLLFGIDVKEVDPTSHSYVLVTSLNLSYDGIQCNEQSMPKSGLLIIVLGVIFMEGNCIPEEVMWEVLSIMGVYAGREHFLFGEPKRLLTQNWVQEKYLVYRQVPGTDPACYEFLWGPRAHAETSKMKVLEYIANANGRDPTSYPSLYEDALREEGEGV
B2: XAGE-3 (protein, UniProt Q8WTP9 1-111, looked up)
X antigen family member 3: MIWRGRSTYRPRPRRSVPPPELIGPMLEPGDEEPQQEEPPTESRDPAPGQEREEDQGAAETQVPDLEADLQELSQSKTGGECGNGPDDQGKILPKSEQFKMPEGGDRQPQV
B3: SPAG9 (protein, UniProt O60271 1-1321, looked up)
C-Jun-amino-terminal …: MELEDGVVYQEEPGGSGAVMSERVSGLAGSIYREFERLIGRYDEEVVKELMPLVVAVLENLDSVFAQDQEHQVELELLRDDNEQLITQYEREKALRKHAEEKFIEFEDSQEQEKKDLQTRVESLESQTRQLELKAKNYADQISRLEEREAELKKEYNALHQRHTEMIHNYMEHLERTKLHQLSGSDQLESTAHSRIRKERPISLGIFPLPAGDGLLTPDAQKGGETPGSEQWKFQELSQPRSHTSLKVSNSPEPQKAVEQEDELSDVSQGGSKATTPASTANSDVATIPTDTPLKEENEGFVKVTDAPNKSEISKHIEVQVAQETRNVSTGSAENEEKSEVQAIIESTPELDMDKDLSGYKGSSTPTKGIENKAFDRNTESLFEELSSAGSGLIGDVDEGADLLGMGREVENLILENTQLLETKNALNIVKNDLIAKVDELTCEKDVLQGELEAVKQAKLKLEEKNRELEEELRKARAEAEDARQKAKDDDDSDIPTAQRKRFTRVEMARVLMERNQYKERLMELQEAVRWTEMIRASRENPAMQEKKRSSIWQFFSRLFSSSSNTTKKPEPPVNLKYNAPTSHVTPSVKKRSSTLSQLPGDKSKAFDFLSEETEASLASRREQKREQYRQVKAHVQKEDGRVQAFGWSLPQKYKQVTNGQGENKMKNLPVPVYLRPLDEKDTSMKLWCAVGVNLSGGKTRDGGSVVGASVFYKDVAGLDTEGSKQRSASQSSLDKLDQELKEQQKELKNQEELSSLVWICTSTHSATKVLIIDAVQPGNILDSFTVCNSHVLCIASVPGARETDYPAGEDLSESGQVDKASLCGSMTSNSSAETDSLLGGITVVGCSAEGVTGAATSPSTNGASPVMDKPPEMEAENSEVDENVPTAEEATEATEGNAGSAEDTVDISQTGVYTEHVFTDPLGVQIPEDLSPVYQSSNDSDAYKDQISVLPNEQDLVREEAQKMSSLLPTMWLGAQNGCLYVHSSVAQWRKCLHSIKLKDSILSIVHVKGIVLVALADGTLAIFHRGVDGQWDLSNYHLLDLGRPHHSIRCMTVVHDKVWCGYRNKIYVVQPKAMKIEKSFDAHPRKESQVRQLAWVGDGVWVSIRLDSTLRLYHAHTYQHLQDVDIEPYVSKMLGTGKLGFSFVRITALMVSCNRLWVGTGNGVIISIPLTETNKTSGVPGNRPGSVIRVYGDENSDKVTPGTFIPYCSMAHAQLCFHGHRDAVKFFVAVPGQVISPQSSSSGTDLTGDKAGPSAQEPGSQTPLKSMLVISGGEGYIDFRMGDEGGESELLGEDLPLEPSVTKAERSHLIVWQVMYGNE
B4: ACTL8 (protein, UniProt Q9H568 1-366, looked up)
Actin-like protein 8: MAARTVIIDHGSGFLKAGTAGWNEPQMVFPNIVNYLPCKENPGPSYARRRVSLGIDICHPDTFSYPIERGRILNWEGVQYLWSFVLENHRREQEVPPVIITETPLREPADRKKMLEILFELLHVPSVLLADQLQMSLYASGLLTGVVVDSGYGLTRVQPFHQGRPLPASGKTLEFAGQDLSAYLLKSLFKEDCDRRCLFQLETVAVTQMNKCYVPQNLGEALDFRERQQSALDESNTYQLPDGSRVELTPMQRVAPEMFFSPQVFEQPGPSIPRAIVESVESCEISLRPLLVSHVMACGGNTLYPGFTKRLFRELMGDHVSSTKATVWEGSNRNFSVWLGASVVAHLSTYQSEWMSREEYGEHMRM
B5: TYR (protein, UniProt P14679 19-529, looked up)
Tyrosinase: HFPRACVSSKNLMEKECCPPWSGDRSPCGQLSGRGSCQNILLSNAPLGPQFPFTGVDDRESWPSVFYNRTCQCSGNFMGFNCGNCKFGFWGPNCTERRLLVRRNIFDLSAPEKDKFFAYLTLAKHTISSDYVIPIGTYGQMKNGSTPMFNDINIYDLFVWMHYYVSMDALLGGSEIWRDIDFAHEAPAFLPWHRLFLLRWEQEIQKLTGDENFTIPYWDWRDAEKCDICTDEYMGGQHPTNPNLLSPASFFSSWQIVCSRLEEYNSHQSLCNGTPEGPLRRNPGNHDKSRTPRLPSSADVEFCLSLTQYESGSMDKAANFSFRNTLEGFASPLTGIADASQSSMHNALHIYMNGTMSQVQGSANDPIFLLHHAFVDSIFEQWLRRHRPLQEVYPEANAPIGHNRESYMVPFIPLYRNGDFFISSKDLGYDYSYLQDSDPDSFQDYIKSYLEQASRIWSWLLGAAMVGAVLTALLAGLVSLLCRHKRKQLPEEKQPLLMEKEDYHSLYQSHL
B6: gp100 (protein, UniProt P40967 25-661, looked up)
Melanocyte protein PMEL: KVPRNQDWLGVSRQLRTKAWNRQLYPEWTEAQRLDCWRGGQVSLKVSNDGPTLIGANASFSIALNFPGSQKVLPDGQVIWVNNTIINGSQVWGGQPVYPQETDDACIFPDGGPCPSGSWSQKRSFVYVWKTWGQYWQVLGGPVSGLSIGTGRAMLGTHTMEVTVYHRRGSRSYVPLAHSSSAFTITDQVPFSVSVSQLRALDGGNKHFLRNQPLTFALQLHDPSGYLAEADLSYTWDFGDSSGTLISRALVVTHTYLEPGPVTAQVVLQAAIPLTSCGSSPVPGTTDGHRPTAEAPNTTAGQVPTTEVVGTTPGQAPTAEPSGTTSVQVPTTEVISTAPVQMPTAESTGMTPEKVPVSEVMGTTLAEMSTPEATGMTPAEVSIVVLSGTTAAQVTTTEWVETTARELPIPEPEGPDASSIMSTESITGSLGPLLDGTATLRLVKRQVPLDCVLYRYGSFSVTLDIVQGIESAEILQAVPSGEGDAFELTVSCQGGLPKEACMEISSPGCQPPAQRLCQPVLPSPACQLVLHQILKGGSGTYCLNVSLADTNSLAVVSTQLIMPGQEAGLGQVPLIVGILLVLMAVVLASLIYRRRLMKQDFSVPQLPHSSSHWLRLPRIFCSCPIGENSPLLSGQQV
B7: ODF4 (protein, UniProt Q2M2E3 1-257, looked up)
Outer dense fiber protein 4: MDAEYSGNEFPRSEGERDQHQRPGKERKSGEAGWGTGELGQDGRLLSSTLSLSSNRSLGQRQNSPLPFQWRITHSFRWMAQVLASELSLVAFILLLVVAFSKKWLDLSRSLFYQRWPVDVSNRIHTSAHVMSMGLLHFYKSRSCSDLENGKVTFIFSTLMLFPINIWIFELERNVSIPIGWSYFIGWLVLILYFTCAILCYFNHKSFWSLILSHPSGAVSCSSSFGSVEESPRAQTITDTPITQEGVLDPEQKDTHV
B8: PEPP2 (protein, UniProt Q9BQY4 1-288, looked up)
Rhox homeobox family member 2: MEPPDQCSQYMTSLLSPAVDDEKELQDMNAMVLSLTEEVKEEEEDAQPEPEQGTAAGEKLKSAGAQGGEEKDGGGEEKDGGGAGVPGHLWEGDLEGTSGSDGNVEDSDQSEKEPGQQYSRPQGAVGGLEPGNAQQPNVHAFTPLQLQELERIFQREQFPSEFLRRRLARSMNVTELAVQIWFENRRAKWRRHQRALMARNMLPFMAVGQPVMVTAAEAITAPLFISGMRDDYFWDHSHSSSLCFPMPPFPPPSLPLPLMLLPPMPPAGQAEFGPFPFVIVPSFTFPNV
B9: PIWIL2 (protein, UniProt Q8TC59 1-973, looked up)
Piwi-like protein 2: MDPFRPSFRGQSPIHPSQCQAVRMPGCWPQASKPLDPALGRGAPAGRGHVFGKPEEPSTQRGPAQRESVGLVSMFRGLGIETVSKTPLKREMLPSGRGILGRGLSANLVRKDREELSPTFWDPKVLAAGDSKMAETSVGWSRTLGRGSSDASLLPLGRAAGGISREVDKPPCTFSTPSRGPPQLSSPPALPQSPLHSPDRPLVLTVEHKEKELIVKQGSKGTPQSLGLNLVKIQCHNEAVYQYHVTFSPNVECKSMRFGMLKDHQAVTGNVTAFDGSILYLPVKLQQVLELKSQRKTDSAEISIKIQMTKILEPCSDLCIPFYNVVFRRVMKLLDMKLVGRNFYDPTSAMVLQQHRLQIWPGYAASIRRTDGGLFLLADVSHKVIRNDCVLDVMHAIYQQNKEHFQDECTKLLVGNIVITRYNNRTYRIDDVDWNKTPKDSFTMSDGKEITFLEYYSKNYGITVKEEDQPLLIHRPSERQDNHGMLLKGEILLLPELSFMTGIPEKMKKDFRAMKDLAQQINLSPKQHHSALECLLQRIAKNEAATNELMRWGLRLQKDVHKIEGRVLPMERINLKNTSFITSQELNWVKEVTRDPSILTIPMHFWALFYPKRAMDQARELVNMLEKIAGPIGMRMSPPAWVELKDDRIETYVRTIQSTLGAEGKIQMVVCIIMGPRDDLYGAIKKLCCVQSPVPSQVVNVRTIGQPTRLRSVAQKILLQINCKLGGELWGVDIPLKQLMVIGMDVYHDPSRGMRSVVGFVASINLTLTKWYSRVVFQMPHQEIVDSLKLCLVGSLKKFYEVNHCLPEKIVVYRDGVSDGQLKTVANYEIPQLQKCFEAFENYQPKMVVFVVQKKISTNLYLAAPQNFVTPTPGTVVDHTITSCEWVDFYLLAHHVRQGCGIPTHYVCVLNTANLSPDHMQRLTFKLCHMYWNWPGTIRVPAPCKYAHKLAFLSGHILHHEPAIQLCENLFFL

Tested on: TSA
[1] = TSA expression rate in MELANOMA
[2] = TSA expression rate in BLADDER cancer
[3] = TSA expression rate in Cervical cancer
[4] = TSA expression rate in PROSTATE cancer

Molecule | TSA Expression Rate (ER) (BRAIN) | Expression Rate (ER) % [1] | TSA Expression Rate (ER) (BREAST) | TSA Expression Rate (ER) (THYROID) | also measured
B1 | 85% |  |  |  | 
B2 | 60% | 0% |  |  | Expression Rate (ER) % (TSA expression rate in HEAD and NECK): 12%
B3 | 60% |  | 88% | 78% | TSA Expression Rate (ER) (HCC): 52%; TSA Expression Rate (ER) (LUNG): 56%; TSA Expression Rate (ER) (OVARIAN): 90%; Expression Rate (ER) % [2]: 81%; Expression Rate (ER) % (TSA expression rate in CRC): 71%; Expression Rate (ER) % [3]: 82%; Expression Rate (ER) % (TSA expression rate in Kidney): 88%; Expression Rate (ER) % (TSA expression rate in LEUKEMIAS): 100%
B4 | 54% |  |  |  | 
B5 | 91% | 87% |  | 0% | 
B6 | 85% | 82% |  |  | 
B7 |  |  | 63% |  | Expression Rate (ER) % [4]: 0%
B8 |  |  | 60% |  | 
B9 | 64% |  | 94% | 88% | TSA Expression Rate (ER) (LUNG): 66%; TSA Expression Rate (ER) (OVARIAN): 61%; Expression Rate (ER) % [2]: 82%; Expression Rate (ER) % (TSA expression rate in CRC): 80%; Expression Rate (ER) % [3]: 100%; Expression Rate (ER) % (TSA expression rate in Kidney): 49%; Expression Rate (ER) % [4]: 100%
